In assay [1] the target is Deinococcus grandis Dps, wild type (Deinococcus grandis). The assay is described as follows: SAXS; solution SAXS (batch and SEC-SAXS), 50 mM MOPS pH 7.0 with 50-480 mM NaCl (WT) or 50 and 230 mM NaCl (∆N); ab initio models (GASBOR, DAMMIN) with P23 symmetry set.
In assay [2] the target is Deinococcus grandis Dps tailless variant ∆N (lacking the first 46 residues) (Deinococcus grandis). The assay is described as follows: SEC + other: dynamic light scattering; Superdex 200 10/300 GL calibrated with protein standards, and DLS at 25 °C; 200 mM MOPS pH 7.0, 200 mM NaCl; WT also in 50 mM MOPS pH 7.0 with 50-480 mM NaCl; apparent molecular mass and hydrodynamic diameter of the oligomer.

Assay [3] has the same target. As to the kind of experiment: SAXS; solution SAXS (batch and SEC-SAXS), 50 mM MOPS pH 7.0 with 50-480 mM NaCl (WT) or 50 and 230 mM NaCl (∆N); ab initio models (GASBOR, DAMMIN) with P23 symmetry set.

The substance “Deinococcus grandis Dps, wild type (from UniProt A0A100HLL5 1-214) (natural protein)” showed a stoichiometry N in assay [1] of 12.

Turning to “Deinococcus grandis Dps tailless variant ∆N (lacking the first 46 residues) (from UniProt A0A100HLL5 47-205) (domain or fragment)”, the stoichiometry N in assay [2] and in assay [3] was 12 throughout.

The values above are taken from paper PMC9103930.
